These results are taken from US20160279215A1, “NOVEL PEPTIDES AND COMBINATION OF PEPTIDES FOR USE IN IMMUNOTHERAPY AGAINST VARIOUS TUMORS” (immatics biotechnologies GmbH, priority 2015, published 2016).

The test system of experiment [1] is CD8+ T cells of healthy HLA-A*02 donors. Kind of experiment: In vitro immunogenicity: T-cell priming with aAPCs loaded with peptide/MHC and anti-CD28, pMHC multimer readout. Type of experiment: cell-based, human. The conditions noted are these: for Wells positive [%]: in vitro immunogenicity, HLA-A*02 restricted peptides, percentage of positive wells among evaluable; for donors: percentage of positive donors; for donors / wells: in vitro immunogenicity of HLA class I peptides; for wells: percentage of positive wells. The text has this: In order to obtain information regarding the immunogenicity of the TUMAPs of the present invention, the inventors performed investigations using an in vitro T-cell priming assay based on repeated stimulations of CD8+ T cells with artificial antigen presenting cells (aAPCs) loaded with peptide/MHC complexes and anti-CD28 antibody.
In order to perform in vitro stimulations by artificial antigen presenting cells loaded with peptide-MHC complex (pMHC) and anti-CD28 antibody, the inventors first isolated CD8+ T cells from fresh HLA-A*02 leukapheresis products via positive selection using CD8 microbeads (Miltenyi Biotec, Bergisch-Gladbach, Germany) of healthy donors obtained from the University clinics Mannheim, Germany, after informed consent. PBMCs and isolated CD8+ lymphocytes were incubated in T-cell medium (TCM) until use consisting of RPMI-Glutamax (Invitrogen, Karlsruhe, Germany) supplemented with 10% heat inactivated human AB serum (PAN-Biotech, Aidenbach, Germany), 100 U/ml Penicillin/100 μg/ml Streptomycin (Cambrex, Cologne, Germany), 1 mM sodium pyruvate (CC Pro, Oberdorla, Germany), 20 μg/ml Gentamycin (Cambrex). 2.5 ng/ml IL-7 (PromoCell, Heidelberg, Germany) and 10 U/ml IL-2 (Novartis Pharma, Nürnberg, Germany) were also added to the TCM at this step. Generation of pMHC/anti-CD28 coated beads, T-cell stimulations and readout was performed in a highly defined in vitro system using four different pMHC molecules per stimulation condition and 8 different pMHC molecules per readout condition.
The purified co-stimulatory mouse IgG2a anti human CD28 Ab 9.3 (Jung et al., 1987) was chemically biotinylated using Sulfo-N-hydroxysuccinimidobiotin as recommended by the manufacturer (Perbio, Bonn, Germany). Beads used were 5.6 μm diameter streptavidin coated polystyrene particles (Bangs Laboratories, Illinois, USA).
pMHC used for positive and negative control stimulations were A*0201/MLA-001 (peptide […] (SEQ ID NO. 289) from modified Melan-A/MART-1) and A*0201/DDX5-001 ([…] from DDX5, SEQ ID NO. 290), respectively.
800.000 beads/200 μl were coated in 96-well plates in the presence of 4×12.5 ng different biotin-pMHC, washed and 600 ng biotin anti-CD28 were added subsequently in a volume of 200 μl. Stimulations were initiated in 96-well plates by co-incubating […] CD8+ T cells with 2×10^5 washed coated beads in 200 μl TCM supplemented with 5 ng/ml IL-12 (PromoCell) for 3 days at 37° C. Half of the medium was then exchanged by fresh TCM supplemented with 80 U/ml IL-2 and incubating was continued for 4 days at 37° C. This stimulation cycle was performed for a total of three times. For the pMHC multimer readout using 8 different pMHC molecules per condition, a two-dimensional combinatorial coding approach was used as previously described (Andersen et al., 2012) with minor modifications encompassing coupling to 5 different fluorochromes. Finally, multimeric analyses were performed by staining the cells with Live/dead near IR dye (Invitrogen, Karlsruhe, Germany), CD8-FITC antibody clone SK1 (BD, Heidelberg, Germany) and fluorescent pMHC multimers. For analysis, a BD LSRII SORP cytometer equipped with appropriate lasers and filters was used. Peptide specific cells were calculated as percentage of total CD8+ cells. Evaluation of multimeric analysis was done using the FlowJo software (Tree Star, Oreg., USA). In vitro priming of specific multimer+ CD8+ lymphocytes was detected by comparing to negative control stimulations.
Exemplary flow cytometry results after TUMAP-specific multimer staining for 15 peptides of the invention are shown in FIGS. 3 and 6 together with corresponding negative controls.

In experiment [2] the target is T1, HLA-A*02:01 (Homo sapiens, UniProt P04439, D140Y/D185E/D98H/E176V/E277Q/G131W/G231S/I119V/I121R/I166T/I218V/L300P/L318F/N151K/N90K/P208A/P217A/Q86G/Q94H/R138H/R169H/T345S).
T1 construct: made in house
Kind of experiment: MHC binding assay: UV-ligand exchange with β2m ELISA (peptide exchange yield). The conditions noted are these: binding to HLA-A*02:01 evaluated by peptide exchange yield (UV-ligand exchange, β2m ELISA). The gist of the method: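 Peptide–MHC complexes formed by UV-ligand exchange, cleaving a UV-sensitive peptide so the test peptide can bind. Exchange yield measured by ELISA: complexes captured on streptavidin-coated wells, diluted 100-fold, detected with HRP anti-β2m (1 h, 37 °C) and TMB at 450 nm, against refolded HLA-A*02:01/MLA-001 standards (15-500 ng/ml).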
(In general: In an ELISA, binding on a coated surface is turned into a signal by an enzyme label.)

The target in experiment [3] is T2, HLA-A*02:01 (human).
T2 construct: MHC monomers captured on streptavidin plates; the UV-sensitive peptide is cleaved and exchanged with the test peptide; also called peptide-receptive MHC molecules; MHC class I
Kind of experiment: UV ligand-exchange ELISA (anti-b2m); ++ = exchange yield >=20%. From the text:
Candidate peptides for T cell based therapies according to the present invention were further tested for their MHC binding capacity (affinity). The individual peptide-MHC complexes were produced by UV-ligand exchange, where a UV-sensitive peptide is cleaved upon UV-irradiation, and exchanged with the peptide of interest as analyzed. Only peptide candidates that can effectively bind and stabilize the peptide-receptive MHC molecules prevent dissociation of the MHC complexes. To determine the yield of the exchange reaction, an ELISA was performed based on the detection of the light chain (β2m) of stabilized MHC complexes. The assay was performed as generally described in Rodenko et al. (Rodenko et al., 2006).
96 well MAXISorp plates (NUNC) were coated over night with 2 ug/ml streptavidin in PBS at room temperature, washed 4× and blocked for 1 h at 37° C. in 2% BSA containing blocking buffer. Refolded HLA-A*02:01/MLA-001 monomers served as standards, covering the range of 15-500 ng/ml. Peptide-MHC monomers of the UV-exchange reaction were diluted 100 fold in blocking buffer. Samples were incubated for 1 h at 37° C., washed four times, incubated with 2 ug/ml HRP conjugated anti-β2m for 1 h at 37° C., washed again and detected with TMB solution that is stopped with […]. Absorption was measured at 450 nm. Candidate peptides that show a high exchange yield (preferably higher than 50%, most preferred higher than 75%) are generally preferred for a generation and production of antibodies or fragments thereof, and/or T cell receptors or fragments thereof, as they show sufficient avidity to the MHC molecules and prevent dissociation of the MHC complexes.

Turning to “254 (ALGDKFLLRV; listed as Homo sapiens) [compound 254]”, the “Wells positive [%]” value in experiment [1] is “+ (<20% = +)”. Also, the Peptide exchange result with HLA-A*02:01 [2] is “++ (≧20% = ++)”. For “14 (YTFSGDVQL; listed as Homo sapiens) [compound 14]”, the “Wells positive [%]” value in experiment [1] was “+ (<20% = +)”. In addition, in the experiment with HLA-A*02:01 [2], the Peptide exchange result is “+++ (≧50 = +++)”.

As for “233 (SLFESLEYL; listed as Homo sapiens) [compound 233]”, the “Wells positive [%]” value in experiment [1] is recorded as “+ (<20% = +)”. Further, the Peptide exchange result in the experiment with HLA-A*02:01 [2] is recorded as “+++ (≧50 = +++)”. Taken in the same sequence, the figures for “251 (LLWGNLPEI; listed as Homo sapiens) [compound 251]” were “++ (20%-49% = ++)” and “+++ (≧50 = +++)”. Take “77 (ALYGNVQQV; listed as Homo sapiens) [compound 77]”: the “Wells positive [%]” value in experiment [1] is given as “+ (<20% = +)”. The Peptide exchange entry in the experiment with HLA-A*02:01 [2] is listed as “+++ (≧50 = +++)”. Turning to “257 (KLIDHQGLYL; listed as Homo sapiens) [compound 257]”, in experiment [1], the “Wells positive [%]” value is recorded as “+ (<20% = +)”. For the same molecule, the Peptide exchange entry with HLA-A*02:01 [2] is “+++ (≧50 = +++)”. As to “275 (AVPPPPSSV; listed as Homo sapiens) [compound 275]”, the “Wells positive [%]” value in experiment [1] is recorded as “++ (20%-49% = ++)”. Moreover, the Peptide exchange result with HLA-A*02:01 [2] is recorded as “++ (≧20% = ++)”. With “50 (ILLSVLHQL; listed as Homo sapiens) [compound 50]”, the “Wells positive [%]” value in experiment [1] was “+ (<20% = +)”. Also, the Peptide exchange entry with HLA-A*02:01 [2] is recorded as “+++ (≧50 = +++)”. On to “66 (AMFPDTIPRV; listed as Homo sapiens) [compound 66]”, for which the “Wells positive [%]” value in experiment [1] is reported as “+ (<20% = +)”. For the same molecule, the Peptide exchange result in the experiment with HLA-A*02:01 [2] is “++ (≧20% = ++)”. Take “264 (TLHDQVHLL; listed as Homo sapiens) [compound 264]”: the “Wells positive [%]” value in experiment [1] is on record as “+ (<20% = +)”. Moreover, the Peptide exchange entry in the experiment with HLA-A*02:01 [2] is reported as “++ (≧20% = ++)”. For the molecule “101 (SLLEVNEASSV; listed as Homo sapiens) [compound 101]”, in experiment [1], the “Wells positive [%]” value is “+ (<20% = +)”. In addition, the Peptide exchange result with HLA-A*02:01 [2] was “+++ (≧50 = +++)”.

For the molecule “4 (VLFGELPAL; listed as Homo sapiens) [compound 4]”, the “Wells positive [%]” value in experiment [1] is reported as “+ (<20% = +)”. Further, the Peptide exchange entry with HLA-A*02:01 [2] was “+++ (≧50 = +++)”. With “89 (SLAETIFIV; listed as Homo sapiens) [compound 89]”, the “Wells positive [%]” value in experiment [1] is reported as “+ (<20% = +)”. The Peptide exchange entry in the experiment with HLA-A*02:01 [2] is “+++ (≧50 = +++)”. For “287 (KIQEILTQV; listed as Homo sapiens) [compound 287]”, in experiment [1], the donors entry is listed as “+++ (50%-69% = +++)” and the wells entry was “+ (<20% = +)”.

“288 (SLYKGLLSV; listed as Homo sapiens) [compound 288]”: in experiment [1], the donors entry is given as “++++ (>= 70% = ++++)” and the wells result is “++ (21%-49% = ++)”. ILAEEPIYI gave a peptide exchange yield with HLA-A*02:01 [3] of 20 to 50%.

Regarding RVLPGQAVTGV, in the experiment with HLA-A*02:01 [3], the peptide exchange yield was in the range of 20 to 50%.

Take GLTEKTVLV: the peptide exchange yield with HLA-A*02:01 [3] is 20 to 50%. Same read-out and setting: the same measure for LKVLKADVVL: 20 to 50%; for GLLENSPHL: 20 to 50%.

In the experiment with HLA-A*02:01 [3], SLSEKSPEV had a peptide exchange yield of 20 to 50%.

In the experiment with HLA-A*02:01 [3], VLSTRVTNV yielded a peptide exchange yield of 20 to 50%. In the experiment with HLA-A*02:01 [3], AMLASQTEA came in with a peptide exchange yield of 20 to 50%. Take AILNVDEKNQV: the peptide exchange yield in the experiment with HLA-A*02:01 [3] is 20 to 50%. In the case of SLYAGSNNQV, the peptide exchange yield with HLA-A*02:01 [3] was in the range of 20 to 50%. Take VLLGSVVIFA: in the experiment with HLA-A*02:01 [3], the peptide exchange yield fell in the range of 20 to 50%.

KLLDKPEQFL (also called FMN1-001) displayed a peptide exchange yield with HLA-A*02:01 [3] of 20 to 50%. With HMSGKLTNV, the peptide exchange yield with HLA-A*02:01 [3] lay within 20 to 50%. Turning to ALDTTRHEL, in the experiment with HLA-A*02:01 [3], the peptide exchange yield lay within 20 to 50%. With YLADTVQKL, in the experiment with HLA-A*02:01 [3], the peptide exchange yield was 20 to 50%. TVLEEIGNRV came in with a peptide exchange yield with HLA-A*02:01 [3] of 20 to 50%.

As for LLPSIFLMV, the peptide exchange yield with HLA-A*02:01 [3] fell in the range of 20 to 50%. The same measure, in the same setting: the value for GLAFLPASV was 20 to 50%. In the experiment with HLA-A*02:01 [3], AMFPDTIPRV registered a peptide exchange yield of 20 to 50%. On to RLYGYFHDA, for which the peptide exchange yield with HLA-A*02:01 [3] was in the range of 20 to 50%.
